B1: Mothers against decapentaplegic homolog 4 (Homo sapiens), Q13485 (parent)
chain: MDNMSITNTPTSNDACLSIVHSLMCHRQGGESETFAKRAIESLVKKLKEKKDELDSLITAITTNGAHPSKCVTIQRTLDGRLQVAGRKGFPHVIYARLWRWPDLHKNELKHVKYCQYAFDLKCDSVCVNPYHYERVVSPGIDLSGLTLQSNAPSSMMVKDEYVHDFEGQPSLSTEGHSIQTIQHPPSNRASTETYSTPALLAPSESNATSTANFPNIPVASTSQPASILGGSHSEGLLQIASGPQPGQQQNGFTGQPATYHHNSTTTWTGSRTAPYTPNLPHHQNGHLQHHPPMPPHPGHYWPVHNELAFQPPISNHPAPEYWCSIAYFEMDVQVGETFKVPSSCPIVTVDGYVDPSGGDRFCLGQLSNVHRTEAIERARLHIGKGVQLECKGEGDVWVRCLSDHAVFVQSYYLDREAGRAPGDAVHKIYPSAYIKVFDLRQCHRQMQQQAATAQAAAAAQAAAVAGNIPGPGSVGGIAPAISLSAAAGIGVDDLRRLCILRMSFVKGWGPDYPRQSIKETPCWIEIHLHRALQLLDEVLHTMPIADPQPLD
partner: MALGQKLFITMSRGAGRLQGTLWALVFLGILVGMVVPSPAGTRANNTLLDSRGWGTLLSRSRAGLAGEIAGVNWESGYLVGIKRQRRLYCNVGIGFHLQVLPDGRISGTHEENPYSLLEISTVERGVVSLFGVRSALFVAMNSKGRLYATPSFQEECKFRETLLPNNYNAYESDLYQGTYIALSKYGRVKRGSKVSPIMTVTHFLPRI
B2: Mothers against decapentaplegic homolog 4 (Homo sapiens), Q13485 (parent)
chain: B1 chain
partner: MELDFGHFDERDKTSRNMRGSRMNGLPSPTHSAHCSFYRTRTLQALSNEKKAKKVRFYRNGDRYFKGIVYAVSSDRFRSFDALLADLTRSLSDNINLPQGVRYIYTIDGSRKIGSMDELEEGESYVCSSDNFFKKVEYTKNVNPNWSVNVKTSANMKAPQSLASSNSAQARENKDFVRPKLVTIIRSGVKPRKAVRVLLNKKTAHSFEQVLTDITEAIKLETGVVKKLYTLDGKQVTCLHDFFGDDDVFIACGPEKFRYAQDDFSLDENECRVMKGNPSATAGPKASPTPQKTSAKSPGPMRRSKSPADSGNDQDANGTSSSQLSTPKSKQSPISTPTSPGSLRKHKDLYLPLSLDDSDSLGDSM
B3: Mothers against decapentaplegic homolog 4 (Homo sapiens), Q13485 (parent)
chain: B1 chain
partner: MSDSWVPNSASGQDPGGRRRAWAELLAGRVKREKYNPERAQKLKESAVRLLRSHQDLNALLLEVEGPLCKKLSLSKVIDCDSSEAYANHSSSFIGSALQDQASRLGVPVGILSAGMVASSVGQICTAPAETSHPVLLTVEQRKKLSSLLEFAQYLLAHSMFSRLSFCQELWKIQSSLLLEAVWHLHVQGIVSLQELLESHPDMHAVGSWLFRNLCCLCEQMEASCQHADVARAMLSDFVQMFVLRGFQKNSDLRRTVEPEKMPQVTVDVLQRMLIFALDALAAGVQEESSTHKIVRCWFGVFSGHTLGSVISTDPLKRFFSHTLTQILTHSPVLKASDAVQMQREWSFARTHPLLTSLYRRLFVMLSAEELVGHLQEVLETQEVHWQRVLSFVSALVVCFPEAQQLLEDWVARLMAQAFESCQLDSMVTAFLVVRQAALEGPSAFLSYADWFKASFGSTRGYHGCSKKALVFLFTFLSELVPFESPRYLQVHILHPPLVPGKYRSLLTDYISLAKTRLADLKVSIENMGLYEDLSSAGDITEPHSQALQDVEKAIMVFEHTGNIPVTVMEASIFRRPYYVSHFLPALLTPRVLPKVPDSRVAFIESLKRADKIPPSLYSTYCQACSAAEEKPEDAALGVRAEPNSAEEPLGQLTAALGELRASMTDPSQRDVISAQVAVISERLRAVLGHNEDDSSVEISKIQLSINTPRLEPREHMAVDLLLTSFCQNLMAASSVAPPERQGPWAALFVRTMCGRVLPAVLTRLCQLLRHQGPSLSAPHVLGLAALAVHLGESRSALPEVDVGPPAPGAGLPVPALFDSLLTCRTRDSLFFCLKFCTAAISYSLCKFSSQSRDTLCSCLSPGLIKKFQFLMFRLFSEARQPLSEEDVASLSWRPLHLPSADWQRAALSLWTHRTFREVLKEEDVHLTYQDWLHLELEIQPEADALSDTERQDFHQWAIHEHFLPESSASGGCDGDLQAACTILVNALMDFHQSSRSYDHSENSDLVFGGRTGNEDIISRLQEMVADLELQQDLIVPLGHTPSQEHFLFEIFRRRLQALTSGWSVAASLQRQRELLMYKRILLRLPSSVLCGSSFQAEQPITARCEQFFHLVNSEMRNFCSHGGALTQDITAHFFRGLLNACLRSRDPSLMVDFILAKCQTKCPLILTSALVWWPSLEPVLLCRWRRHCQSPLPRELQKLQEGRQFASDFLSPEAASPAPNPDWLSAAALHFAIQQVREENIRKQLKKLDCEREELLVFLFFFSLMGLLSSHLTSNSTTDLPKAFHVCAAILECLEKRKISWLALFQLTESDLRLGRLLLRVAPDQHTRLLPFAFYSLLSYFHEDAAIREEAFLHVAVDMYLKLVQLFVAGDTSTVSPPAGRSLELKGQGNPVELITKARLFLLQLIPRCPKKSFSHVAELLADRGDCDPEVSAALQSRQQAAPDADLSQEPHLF
B4: Mothers against decapentaplegic homolog 4 (Homo sapiens), Q13485 (parent)
chain: B1 chain
partner: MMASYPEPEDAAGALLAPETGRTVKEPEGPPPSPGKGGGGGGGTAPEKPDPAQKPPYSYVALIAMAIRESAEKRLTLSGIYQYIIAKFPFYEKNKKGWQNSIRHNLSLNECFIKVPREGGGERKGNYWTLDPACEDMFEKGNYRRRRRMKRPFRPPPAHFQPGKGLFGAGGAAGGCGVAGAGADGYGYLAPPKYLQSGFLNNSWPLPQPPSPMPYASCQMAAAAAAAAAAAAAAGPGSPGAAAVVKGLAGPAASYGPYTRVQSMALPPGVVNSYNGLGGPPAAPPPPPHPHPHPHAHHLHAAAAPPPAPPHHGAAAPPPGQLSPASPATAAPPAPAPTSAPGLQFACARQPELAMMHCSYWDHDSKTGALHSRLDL
B5: Mothers against decapentaplegic homolog 4 (Homo sapiens), Q13485 (parent)
chain: B1 chain
partner: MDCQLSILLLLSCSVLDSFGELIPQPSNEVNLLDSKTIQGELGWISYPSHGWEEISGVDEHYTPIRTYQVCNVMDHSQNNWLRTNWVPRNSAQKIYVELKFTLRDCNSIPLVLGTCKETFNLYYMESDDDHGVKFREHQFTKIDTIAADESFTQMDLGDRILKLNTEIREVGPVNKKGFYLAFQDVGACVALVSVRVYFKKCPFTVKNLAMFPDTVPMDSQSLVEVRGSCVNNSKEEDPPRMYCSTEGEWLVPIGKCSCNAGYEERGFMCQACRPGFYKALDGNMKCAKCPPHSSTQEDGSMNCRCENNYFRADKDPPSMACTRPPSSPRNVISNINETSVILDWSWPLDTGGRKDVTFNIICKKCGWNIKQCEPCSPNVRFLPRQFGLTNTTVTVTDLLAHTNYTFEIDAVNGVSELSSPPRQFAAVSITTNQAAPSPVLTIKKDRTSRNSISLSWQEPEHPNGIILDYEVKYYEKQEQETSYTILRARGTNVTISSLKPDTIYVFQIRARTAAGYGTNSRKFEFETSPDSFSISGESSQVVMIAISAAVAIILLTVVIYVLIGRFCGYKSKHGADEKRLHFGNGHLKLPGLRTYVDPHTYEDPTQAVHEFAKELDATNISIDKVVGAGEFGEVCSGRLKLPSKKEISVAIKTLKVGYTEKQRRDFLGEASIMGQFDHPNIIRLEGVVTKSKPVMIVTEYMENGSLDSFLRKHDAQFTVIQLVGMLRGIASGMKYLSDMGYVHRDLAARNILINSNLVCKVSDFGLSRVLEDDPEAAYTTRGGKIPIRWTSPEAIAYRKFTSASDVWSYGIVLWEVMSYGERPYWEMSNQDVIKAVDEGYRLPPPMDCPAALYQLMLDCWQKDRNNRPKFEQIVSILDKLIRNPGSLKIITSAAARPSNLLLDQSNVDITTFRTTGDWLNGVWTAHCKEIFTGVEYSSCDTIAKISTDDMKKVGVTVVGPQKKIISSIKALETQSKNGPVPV
B6: Mothers against decapentaplegic homolog 4 (Homo sapiens), Q13485 (parent)
chain: B1 chain
partner: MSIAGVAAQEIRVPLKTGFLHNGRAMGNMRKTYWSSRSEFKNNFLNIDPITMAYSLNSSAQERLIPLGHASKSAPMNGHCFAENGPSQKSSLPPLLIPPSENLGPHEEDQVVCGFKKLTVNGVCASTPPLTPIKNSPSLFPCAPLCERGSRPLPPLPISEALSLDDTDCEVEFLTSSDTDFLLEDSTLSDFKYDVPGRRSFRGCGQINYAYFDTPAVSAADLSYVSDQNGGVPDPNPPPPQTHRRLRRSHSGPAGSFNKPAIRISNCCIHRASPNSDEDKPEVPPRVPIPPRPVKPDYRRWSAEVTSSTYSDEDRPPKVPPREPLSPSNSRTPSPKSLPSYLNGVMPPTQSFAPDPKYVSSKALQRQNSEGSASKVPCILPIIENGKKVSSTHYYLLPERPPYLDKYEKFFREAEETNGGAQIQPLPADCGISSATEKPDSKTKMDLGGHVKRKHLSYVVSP
B7: Mothers against decapentaplegic homolog 4 (Homo sapiens), Q13485 (parent)
chain: B1 chain
partner: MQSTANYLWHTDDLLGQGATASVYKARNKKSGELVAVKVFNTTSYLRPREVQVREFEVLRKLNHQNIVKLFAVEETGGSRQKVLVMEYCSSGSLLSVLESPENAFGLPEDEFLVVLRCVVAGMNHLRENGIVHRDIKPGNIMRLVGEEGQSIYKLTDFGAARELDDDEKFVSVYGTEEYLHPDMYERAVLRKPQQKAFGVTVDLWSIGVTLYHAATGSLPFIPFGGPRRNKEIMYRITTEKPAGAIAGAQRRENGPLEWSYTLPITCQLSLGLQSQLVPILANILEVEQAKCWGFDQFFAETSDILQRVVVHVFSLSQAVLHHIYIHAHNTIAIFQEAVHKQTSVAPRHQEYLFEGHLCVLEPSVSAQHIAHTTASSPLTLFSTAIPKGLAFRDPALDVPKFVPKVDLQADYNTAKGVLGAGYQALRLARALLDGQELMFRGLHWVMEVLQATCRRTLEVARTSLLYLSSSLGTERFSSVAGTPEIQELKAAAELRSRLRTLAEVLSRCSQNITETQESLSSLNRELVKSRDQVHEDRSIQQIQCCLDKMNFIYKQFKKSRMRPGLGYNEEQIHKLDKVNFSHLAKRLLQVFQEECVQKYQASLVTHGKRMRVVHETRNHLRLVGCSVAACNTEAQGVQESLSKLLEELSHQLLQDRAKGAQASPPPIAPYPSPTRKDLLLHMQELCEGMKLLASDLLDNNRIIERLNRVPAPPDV

Variants of: B1
Conditions: with fgf6_human FGF6, P10767

Variant | effect of a mutation on the interaction
D351H | with no effect

Variants of: B2
Conditions: with dcx_human DCX

Variant | effect of a mutation on the interaction
R361H | with no effect

Variants of: B2
Conditions: with dcx_human DCX
Remark: another data set of the same source

Variant | effect of a mutation on the interaction
R361C | with no effect

Variants of: B2
Conditions: with dcx_human DCX
Remark: another data set of the same source

Variant | effect of a mutation on the interaction
G386D | with no effect

Variants of: B2
Conditions: with dcx_human DCX
Remark: another data set of the same source

Variant | effect of a mutation on the interaction
D351H | with no effect

Variants of: B3
Conditions: with fanca_human FANCA

Variant | effect of a mutation on the interaction
D351H | with no effect

Variants of: B3
Conditions: with fanca_human FANCA
Remark: another data set of the same source

Variant | effect of a mutation on the interaction
G386D | with no effect

Variants of: B3
Conditions: with fanca_human FANCA
Remark: another data set of the same source

Variant | effect of a mutation on the interaction
R361H | with no effect

Variants of: B3
Conditions: with fanca_human FANCA
Remark: another data set of the same source

Variant | effect of a mutation on the interaction
R361C | with no effect

Variants of: B4
Conditions: with foxl2_human FOXL2, P58012

Variant | effect of a mutation on the interaction
R361H | with no effect

Variants of: B4
Conditions: with foxl2_human FOXL2, P58012
Remark: another data set of the same source

Variant | effect of a mutation on the interaction
R361C | with no effect

Variants of: B4
Conditions: with foxl2_human FOXL2, P58012
Remark: another data set of the same source

Variant | effect of a mutation on the interaction
D351H | with no effect

Variants of: B4
Conditions: with foxl2_human FOXL2, P58012
Remark: another data set of the same source

Variant | effect of a mutation on the interaction
G386D | with no effect

Variants of: B5
Conditions: with epha3_human EPHA3, P29320

Variant | effect of a mutation on the interaction
G386D | with no effect

Variants of: B5
Conditions: with epha3_human EPHA3, P29320
Remark: another data set of the same source

Variant | effect of a mutation on the interaction
G386D | increasing interaction strength

Variants of: B5
Conditions: with epha3_human EPHA3, P29320
Remark: another data set of the same source

Variant | effect of a mutation on the interaction
R361C | with no effect

Variants of: B5
Conditions: with epha3_human EPHA3, P29320
Remark: another data set of the same source

Variant | effect of a mutation on the interaction
R361H | with no effect

Variants of: B5
Conditions: with epha3_human EPHA3, P29320
Remark: another data set of the same source

Variant | effect of a mutation on the interaction
D351H | with no effect

Variants of: B6
Conditions: with errfi_human ERRFI1, Q9UJM3

Variant | effect of a mutation on the interaction
R361H | with no effect

Variants of: B6
Conditions: with errfi_human ERRFI1, Q9UJM3
Remark: another data set of the same source

Variant | effect of a mutation on the interaction
R361C | with no effect

Variants of: B6
Conditions: with errfi_human ERRFI1, Q9UJM3
Remark: another data set of the same source

Variant | effect of a mutation on the interaction
G386D | with no effect

Variants of: B6
Conditions: with errfi_human ERRFI1, Q9UJM3
Remark: another data set of the same source

Variant | effect of a mutation on the interaction
D351H | with no effect

Variants of: B7
Conditions: with ikke_human IKBKE

Variant | effect of a mutation on the interaction
G386D | with no effect

Variants of: B7
Conditions: with ikke_human IKBKE
Remark: another data set of the same source

Variant | effect of a mutation on the interaction
D351H | with no effect

Reference: IntAct's records for PubMed 35512704
